Experimental findings from paper PMC12609080, “Substrate recognition by human separase” (Science Advances, 2025) are described below.

Common to all, as to test: fluorescence polarisation; FlAsH-EDT2-labelled SCC1 fragment as probe, inactive separase added; 25 mM Hepes (pH 8.0), 100 mM NaCl, bovine serum albumin (0.1 mg/ml), 0.01% NP-40; room temperature (25°C); One Site-Total nonlinear fit
Test [1] deals with MBP-SCC1^100–320 with C-terminal tetracysteine motif, unphosphorylated (human) (UniProt O60216).
MBP-SCC1^100–320 with C-terminal tetracysteine motif, unphosphorylated (human), sequence (O60216 100-320): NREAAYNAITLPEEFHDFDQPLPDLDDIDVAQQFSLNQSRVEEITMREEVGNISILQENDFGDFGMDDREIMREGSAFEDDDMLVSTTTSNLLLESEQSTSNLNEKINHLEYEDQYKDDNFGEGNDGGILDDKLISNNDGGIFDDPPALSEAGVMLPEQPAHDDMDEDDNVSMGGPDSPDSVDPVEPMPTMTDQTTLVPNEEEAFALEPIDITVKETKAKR
The target in test [2] is phosphorylated SCC1 site 1 (100 to 320) (human) (UniProt O60216).
phosphorylated SCC1 site 1 (100 to 320) (human), sequence (O60216 100-320): as above
For test [3], the target named is T1, inactive apo-separase (separase^C2029S) (human, UniProt Q14674 1-2120, C2029S).
T1 construct: human separase (2120 amino acids), amino acids 1 to 2120, catalytic cysteine replaced with serine; Gene-optimised synthetic cDNA in the pF1 vector; also called apo-separase^C2029S; source: Sf9 (baculovirus), purified (Strep-Tactin, heparin, Superose 6)
T1 sequence (Q14674 whole entry C2029S, the tested form may be a part): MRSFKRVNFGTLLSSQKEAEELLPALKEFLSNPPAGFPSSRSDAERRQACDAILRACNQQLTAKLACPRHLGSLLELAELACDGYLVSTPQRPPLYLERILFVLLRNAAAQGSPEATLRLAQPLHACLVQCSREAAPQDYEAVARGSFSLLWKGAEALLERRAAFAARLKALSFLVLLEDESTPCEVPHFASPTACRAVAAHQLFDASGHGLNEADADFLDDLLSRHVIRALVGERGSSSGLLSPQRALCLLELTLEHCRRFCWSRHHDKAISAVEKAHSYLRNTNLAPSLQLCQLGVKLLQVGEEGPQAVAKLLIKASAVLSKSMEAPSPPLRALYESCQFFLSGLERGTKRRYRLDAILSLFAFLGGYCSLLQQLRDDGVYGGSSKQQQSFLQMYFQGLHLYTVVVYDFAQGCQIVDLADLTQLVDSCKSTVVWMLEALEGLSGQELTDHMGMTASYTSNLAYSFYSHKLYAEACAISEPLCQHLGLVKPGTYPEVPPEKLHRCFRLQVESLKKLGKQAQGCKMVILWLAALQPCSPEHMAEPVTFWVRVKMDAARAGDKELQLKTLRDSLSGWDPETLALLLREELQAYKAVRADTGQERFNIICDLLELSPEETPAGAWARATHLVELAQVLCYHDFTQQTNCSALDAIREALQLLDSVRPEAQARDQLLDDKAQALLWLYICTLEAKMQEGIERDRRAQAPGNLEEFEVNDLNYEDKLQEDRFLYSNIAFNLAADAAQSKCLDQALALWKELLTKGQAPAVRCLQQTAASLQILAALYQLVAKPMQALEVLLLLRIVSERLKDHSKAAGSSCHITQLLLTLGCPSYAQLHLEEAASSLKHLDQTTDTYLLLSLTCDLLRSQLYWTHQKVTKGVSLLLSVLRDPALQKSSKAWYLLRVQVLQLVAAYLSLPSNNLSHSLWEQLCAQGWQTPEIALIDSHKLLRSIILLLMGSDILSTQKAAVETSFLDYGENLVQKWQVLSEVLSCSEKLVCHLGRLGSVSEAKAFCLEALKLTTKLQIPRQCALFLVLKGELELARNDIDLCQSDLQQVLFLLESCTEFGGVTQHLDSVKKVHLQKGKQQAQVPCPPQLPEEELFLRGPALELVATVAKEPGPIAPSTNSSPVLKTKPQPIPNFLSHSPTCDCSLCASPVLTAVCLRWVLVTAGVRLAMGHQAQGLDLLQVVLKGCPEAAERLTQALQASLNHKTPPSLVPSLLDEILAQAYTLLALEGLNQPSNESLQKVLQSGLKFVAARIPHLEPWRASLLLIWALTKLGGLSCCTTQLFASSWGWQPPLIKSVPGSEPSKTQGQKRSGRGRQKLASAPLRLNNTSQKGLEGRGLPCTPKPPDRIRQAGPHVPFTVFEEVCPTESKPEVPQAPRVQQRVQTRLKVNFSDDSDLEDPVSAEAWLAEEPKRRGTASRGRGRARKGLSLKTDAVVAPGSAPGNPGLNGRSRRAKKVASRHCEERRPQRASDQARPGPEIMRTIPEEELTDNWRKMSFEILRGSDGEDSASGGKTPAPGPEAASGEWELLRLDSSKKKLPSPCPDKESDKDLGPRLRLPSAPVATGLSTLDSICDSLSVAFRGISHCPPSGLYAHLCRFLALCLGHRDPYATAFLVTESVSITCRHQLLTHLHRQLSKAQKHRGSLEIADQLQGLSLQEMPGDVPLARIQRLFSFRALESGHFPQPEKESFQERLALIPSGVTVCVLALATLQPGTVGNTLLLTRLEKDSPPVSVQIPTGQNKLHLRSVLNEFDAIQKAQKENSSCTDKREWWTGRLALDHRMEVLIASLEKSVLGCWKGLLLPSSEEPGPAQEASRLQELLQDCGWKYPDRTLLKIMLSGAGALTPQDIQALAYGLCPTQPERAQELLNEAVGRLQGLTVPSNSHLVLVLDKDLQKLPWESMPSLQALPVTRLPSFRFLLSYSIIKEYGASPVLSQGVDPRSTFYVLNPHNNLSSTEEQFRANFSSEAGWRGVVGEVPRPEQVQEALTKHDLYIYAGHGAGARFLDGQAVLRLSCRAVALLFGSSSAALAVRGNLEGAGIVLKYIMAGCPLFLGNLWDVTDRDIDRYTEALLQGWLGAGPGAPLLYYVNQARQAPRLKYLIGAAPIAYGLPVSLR
The note with it: both partners purified.

For the molecule “inactive apo-separase (separase^C2029S), Q14674 1-2120”, in test [1], the fold lower Kd than the SCC1 350-550 construct is 3 fold. In test [2], this molecule gave a fold lower Kd than unphosphorylated SCC1 100-320 of 2 fold.

B1: MBP-SCC1^350–550 with C-terminal tetracysteine motif, unphosphorylated (domain or fragment, human, UniProt O60216 350-550, looked up)
chain: TLDLAPPTKKLMMWKETGGVEKLFSLPAQPLWNNRLLKLFTRCLTPLVPEDLRKRRKGGEADNLDEFLKEFENPEVPREDQQQQHQQRDVIDEPIIEEPSRLQESVMEASRTNIDESAMPPPPPQGVKRKAGQIDPEPVMPPQQVEQMEIPPVELPPEEPPNICQLIPELELLPEKEKEKEKEKEDDEEEEDEDASGGDQD
modifications: FlAsH-EDT2 fluorescent dye on the C-terminal tetracysteine motif
notes: human SCC1/RAD21, amino acids 350 to 550 (holds cleavage site 2, R427); pETM41 vector; also called SCC1 site 2 (amino acids 350 to 550); source: E. coli BL21, purified (HiTrap MBP, Superdex 200); not shown: 6xHis-MBP, N-terminal, kept
With B1, in test [3], the binding result is reported as “binds”.
